# Measurements reported in paper PMC5042579.
# Assays:
# [1] = biological target: biotinylated EB1 (mouse end-binding protein 1) (mouse) (UniProt Q61166); test: pull-down
# [2] = biological target: microtubules of tubulin purified from bovine brain (bovine) (UniProt Q6B856); test: co-sedimentation; conditions: scale: molecule per 100 dimers of polymerized tubulin
# GFP-EB1 (human) (human) = GFP-EB1 (human) (human) (UniProt Q15691); test: TIRF microscopy of reconstituted dynamic microtubules
# Sequence of GFP-EB1 (human) (human) (Q15691 whole entry): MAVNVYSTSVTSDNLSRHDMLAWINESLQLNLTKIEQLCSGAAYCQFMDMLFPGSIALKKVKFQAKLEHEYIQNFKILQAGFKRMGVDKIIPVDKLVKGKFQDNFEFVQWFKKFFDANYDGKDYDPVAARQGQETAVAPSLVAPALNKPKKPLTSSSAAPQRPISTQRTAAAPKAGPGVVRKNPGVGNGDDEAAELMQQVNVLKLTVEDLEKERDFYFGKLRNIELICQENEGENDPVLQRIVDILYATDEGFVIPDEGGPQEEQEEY
# Sequence of biotinylated EB1 (mouse end-binding protein 1) (mouse) (Q61166 whole entry): as the sequence (Q15691 whole entry) above, with D123E, N147S, T154G, S157T, S165A, A170T, V179M, N201K counted along it
Substance,percent bound to EB1 compared with tau [1] [%],tau molecules bound per 100 dimers of polymerized tubulin [2],GFP-EB1 comet intensity at microtubule ends with 75 nM tau protein (GFP-EB1 (human) (human)) [a.u.]
"S262E-tau (phosphomimetic tau, serine 262 replaced by glutamate) (natural protein)",50.1,1,–
P2R′-tau (tau fragment from P2 to R′) (from UniProt P10636-7 169-371) (domain or fragment),–,–,7
